Key:
FcγR2a R167 [1] = target: FcγR2a R167 (UniProt P12318); experiment: SPR, kinetic fit, first of two runs
FcγR2a R167 [2] = target: FcγR2a R167 (UniProt P12318); experiment: SPR, steady state fit, second of two runs
FcγR2a R167 [3] = target: FcγR2a R167 (UniProt P12318); experiment: SPR, steady state fit, first of two runs
[4] = target: neonatal Fc receptor (FcRn) (Human) (UniProt P55899); experiment: SPR at pH 6.0, kinetic fit
[5] = target: neonatal Fc receptor (FcRn) (Human) (UniProt P55899); experiment: SPR at pH 6.0, experimental Rmax / theoretical Rmax
FcγR3A 176F [6] = target: FcγR3A 176F (UniProt P08637); experiment: SPR, experimental Rmax / theoretical Rmax
FcγR2B/C [7] = target: FcγR2B/C (UniProt P31994); experiment: SPR, experimental Rmax / theoretical Rmax
[8] = target: Fc-gamma Receptor 1 (FcγR1) (UniProt P12314); experiment: SPR, experimental Rmax / theoretical Rmax
FcγR3A 176V [9] = target: FcγR3A 176V (UniProt P08637); experiment: SPR, steady state fit
FcγR3A 176F [10] = target: FcγR3A 176F (UniProt P08637); experiment: SPR, steady state fit
FcγR2B/C [11] = target: FcγR2B/C (UniProt P31994); experiment: SPR, steady state fit
FcγR2a H167 [12] = target: FcγR2a H167 (UniProt P12318); experiment: SPR, steady state fit
FcγR2a R167 [13] = target: FcγR2a R167 (UniProt P12318); experiment: SPR, kinetic fit, second of two runs
FcγR3A 176V [14] = target: FcγR3A 176V (UniProt P08637); experiment: SPR, kinetic fit
FcγR3A 176F [15] = target: FcγR3A 176F (UniProt P08637); experiment: SPR, kinetic fit
FcγR2B/C [16] = target: FcγR2B/C (UniProt P31994); experiment: SPR, kinetic fit
FcγR2a H167 [17] = target: FcγR2a H167 (UniProt P12318); experiment: SPR, kinetic fit
[18] = target: biotinylated SARS-CoV-2 spike RBD (Ancestral) (SARS-CoV-2) (UniProt P0DTC2); experiment: AlphaLISA, inhibition of ACE2-muFc / biotinylated spike complex
[19] = target: neonatal Fc receptor (FcRn) (Human) (UniProt P55899); experiment: SPR at pH 6.0, steady state fit
[20] = target: Fc-gamma Receptor 1 (FcγR1) (UniProt P12314)

FcγR3A 176F, sequence (P08637 17-208): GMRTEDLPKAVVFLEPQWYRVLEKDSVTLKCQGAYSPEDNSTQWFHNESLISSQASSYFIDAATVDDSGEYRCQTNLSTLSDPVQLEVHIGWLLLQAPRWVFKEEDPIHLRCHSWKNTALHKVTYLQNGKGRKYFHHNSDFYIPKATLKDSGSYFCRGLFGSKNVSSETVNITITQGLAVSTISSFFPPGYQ
FcγR2B/C, sequence (P31994 46-217): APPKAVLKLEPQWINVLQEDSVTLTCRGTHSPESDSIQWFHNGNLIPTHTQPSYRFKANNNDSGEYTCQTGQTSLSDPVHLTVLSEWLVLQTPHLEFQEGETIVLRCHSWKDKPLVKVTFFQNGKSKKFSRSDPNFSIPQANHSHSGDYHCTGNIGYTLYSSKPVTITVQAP
neonatal Fc receptor (FcRn) (Human), sequence (P55899 24-297): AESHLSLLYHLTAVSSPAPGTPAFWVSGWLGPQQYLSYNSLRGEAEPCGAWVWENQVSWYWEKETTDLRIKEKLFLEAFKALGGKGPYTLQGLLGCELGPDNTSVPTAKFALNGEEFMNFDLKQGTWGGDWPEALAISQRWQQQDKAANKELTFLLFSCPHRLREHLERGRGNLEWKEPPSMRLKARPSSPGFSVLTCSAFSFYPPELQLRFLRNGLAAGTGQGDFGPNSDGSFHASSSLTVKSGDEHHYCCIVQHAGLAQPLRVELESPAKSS
FcγR2a R167, sequence (P12318 36-218 H167R): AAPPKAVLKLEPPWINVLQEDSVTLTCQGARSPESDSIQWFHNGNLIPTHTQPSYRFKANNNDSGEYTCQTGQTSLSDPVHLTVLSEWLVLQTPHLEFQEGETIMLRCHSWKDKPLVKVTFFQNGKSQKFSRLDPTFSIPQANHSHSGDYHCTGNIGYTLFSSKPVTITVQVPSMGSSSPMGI
FcγR2a H167, sequence (P12318 36-218): as the sequence (P12318 36-218 H167R) above, with R132H counted along it
FcγR3A 176V, sequence (P08637 17-208 F176V): as the sequence (P08637 17-208) above, with F160V counted along it
Fc-gamma Receptor 1 (FcγR1), sequence (P12314 16-288): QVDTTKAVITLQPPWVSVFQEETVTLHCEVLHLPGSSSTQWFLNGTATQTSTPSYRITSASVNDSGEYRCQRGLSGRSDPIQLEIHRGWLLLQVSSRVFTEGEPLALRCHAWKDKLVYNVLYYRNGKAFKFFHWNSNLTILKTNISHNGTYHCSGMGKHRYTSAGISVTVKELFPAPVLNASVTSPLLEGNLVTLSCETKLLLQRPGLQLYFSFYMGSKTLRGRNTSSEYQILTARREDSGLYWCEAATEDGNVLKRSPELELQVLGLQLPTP

How did the Kd (FcγR2a R167 [1]) turn out when “anti-RBD neutralizing monoclonal antibody (human IgG1) from Acro Biosystems (SAD-S35)” was run?
Its Kd is 596 nM.

What about the Kd (FcγR2a R167 [2]) of the same substance?
The Kd was 640 nM.

What about the Kd (FcγR2a R167 [3]) of the same substance?
The Kd was 636 nM.

What about the Kd [4] of the same substance?
Its Kd is 81.1 nM.

And the % Activity [5]?
Its % Activity is 116%.

What about the % Activity (FcγR3A 176F [6]) of the same substance?
Its % Activity is 92%.

And the % Activity (FcγR2B/C [7])?
The % Activity was 93%.

And the % Activity [8]?
The % Activity was 120%.

And the Kd (FcγR3A 176V [9])?
Its Kd is 210 nM.

What about the Kd (FcγR3A 176F [10]) of the same substance?
The Kd was 796 nM.

What about the Kd (FcγR2B/C [11]) of the same substance?
The Kd was 1590 nM.

And the Kd (FcγR2a H167 [12])?
Its Kd is 537 nM.

And the Kd (FcγR2a R167 [13])?
The Kd was 650 nM.

What about the Kd (FcγR3A 176V [14]) of the same substance?
The Kd was 161 nM.

What about the Kd (FcγR3A 176F [15]) of the same substance?
Its Kd is 1110 nM.

What about the Kd (FcγR2B/C [16]) of the same substance?
The Kd was 1360 nM.

And the Kd (FcγR2a H167 [17])?
Its Kd is 462 nM.

What about the IC50 [18] of the same substance?
Its IC50 is 6.8 nM.

And the Kd [19]?
The Kd was 86.5 nM.

And the Kd [20]?
The Kd was 0.46 nM.

From patent publication US20230002478A1
